The values that follow come from article PMC10218236, “Structural Optimization and Interaction Study of a DNA Aptamer to L1 Cell Adhesion Molecule”.

For the series, the target named is L1CAM protein (Sino Biological) (UniProt P32004 20-1120). The series is described as follows: DMS footprinting; 100 nM DNA, 300 nM L1CAM; PBS, 4.5 g/L glucose, 5 mM MgCl2, 1 mg/mL BSA, 0.1 mg/mL herring sperm DNA; 30 min at 4 °C (or 25/37 °C); pH not stated. The settings on record: protein: commercial; label: FAM (3' FAM in DMS footprinting); hairpin, two stems, two loops, T bulge in stem I.
Chain of L1CAM protein (Sino Biological) (P32004 20-1120): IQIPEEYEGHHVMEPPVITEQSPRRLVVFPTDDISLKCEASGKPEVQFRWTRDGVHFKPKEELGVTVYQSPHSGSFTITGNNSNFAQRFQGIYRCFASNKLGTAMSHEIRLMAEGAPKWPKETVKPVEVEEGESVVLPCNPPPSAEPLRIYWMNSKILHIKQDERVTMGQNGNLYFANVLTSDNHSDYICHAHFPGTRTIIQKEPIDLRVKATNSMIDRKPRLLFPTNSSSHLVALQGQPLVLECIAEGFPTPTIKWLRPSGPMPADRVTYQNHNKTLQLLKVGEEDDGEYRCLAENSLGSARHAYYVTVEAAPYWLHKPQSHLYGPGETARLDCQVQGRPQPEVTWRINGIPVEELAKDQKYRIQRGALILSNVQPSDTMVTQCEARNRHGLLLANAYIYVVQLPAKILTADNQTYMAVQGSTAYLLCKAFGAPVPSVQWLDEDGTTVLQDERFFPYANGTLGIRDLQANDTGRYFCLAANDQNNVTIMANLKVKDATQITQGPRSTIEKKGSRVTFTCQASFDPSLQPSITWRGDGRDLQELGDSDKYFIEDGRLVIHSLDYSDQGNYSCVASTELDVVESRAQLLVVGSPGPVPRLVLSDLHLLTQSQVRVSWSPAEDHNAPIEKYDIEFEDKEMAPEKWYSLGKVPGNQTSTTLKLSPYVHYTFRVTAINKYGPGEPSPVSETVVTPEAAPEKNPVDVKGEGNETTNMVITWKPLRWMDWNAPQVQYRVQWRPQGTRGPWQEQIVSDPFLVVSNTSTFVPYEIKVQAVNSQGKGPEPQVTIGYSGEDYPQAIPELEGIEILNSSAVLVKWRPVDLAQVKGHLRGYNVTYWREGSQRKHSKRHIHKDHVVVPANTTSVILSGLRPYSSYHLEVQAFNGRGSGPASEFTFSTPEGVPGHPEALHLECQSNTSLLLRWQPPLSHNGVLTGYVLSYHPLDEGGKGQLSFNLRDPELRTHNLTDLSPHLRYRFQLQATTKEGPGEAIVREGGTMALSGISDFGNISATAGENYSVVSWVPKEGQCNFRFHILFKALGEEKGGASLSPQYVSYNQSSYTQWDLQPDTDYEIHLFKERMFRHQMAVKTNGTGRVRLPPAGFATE

B1: yly20 (ssDNA)
DNA: CAGATAGGGGGTAGCTCGGTCGTGTTTTTGGGTTGTTTGGTGGGTCTTCTG
As for B1, the binding result was “binds”.
